In patent publication US20210040175A1:

Molecular target: human CD20 (human) (UniProt P11836)
Experiment: cell-based or functional assay

Chain of UniProt P11836 (P11836 whole entry): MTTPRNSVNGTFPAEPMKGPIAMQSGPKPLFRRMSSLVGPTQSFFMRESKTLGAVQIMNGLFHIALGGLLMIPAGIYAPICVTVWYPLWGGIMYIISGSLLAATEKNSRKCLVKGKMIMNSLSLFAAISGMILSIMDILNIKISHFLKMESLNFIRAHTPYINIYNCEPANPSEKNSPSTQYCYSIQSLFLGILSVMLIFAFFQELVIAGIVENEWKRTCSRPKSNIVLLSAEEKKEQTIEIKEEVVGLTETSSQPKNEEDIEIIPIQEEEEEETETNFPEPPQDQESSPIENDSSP

Substance: Rituximab (antibody)
- ADCC by haNK cells for SUP-B15^CD20 at the highest 10:1 ET ratio: 60%
